The results in this text go back to paper PMC5864733.

Common to all, as to test: SEC
(Size exclusion chromatography separates by hydrodynamic size, large species first.)

Assay [1] deals with CesT-E121A (residues 1-156, E121A) (enteropathogenic E. coli (EPEC) O127:H6 E2348/69) (UniProt P21244).
Assay [2] addresses CesT-E121A/Y152A (residues 1-156, E121A + Y152A) (enteropathogenic E. coli (EPEC) O127:H6 E2348/69) (UniProt P21244).
Assay [3] concerns the target CesT-Y152A (residues 1-156, Y152A) (enteropathogenic E. coli (EPEC) O127:H6 E2348/69) (UniProt P21244).
For assay [4], the target named is CsrA (residues 1-61), GST tag removed (enteropathogenic E. coli (EPEC) O127:H6 E2348/69) (UniProt P69913).
For assay [5], the target named is CsrA tetra-mutant (residues 1-61, R31A + K38A + H43A + R44A) (enteropathogenic E. coli (EPEC) O127:H6 E2348/69) (UniProt P69913).
Assay [6] addresses CsrA-Cdel (residues 1-44) (enteropathogenic E. coli (EPEC) O127:H6 E2348/69) (UniProt P69913).

In turn, “CesT-E121A (residues 1-156, E121A) (from UniProt P21244 1-156) (natural protein)” displayed a stoichiometry N in assay [1] of 2.

Regarding “CesT-E121A/Y152A (residues 1-156, E121A + Y152A) (from UniProt P21244 1-156) (natural protein)”, the stoichiometry N in assay [2] stood at 2.

In assay [3], “CesT-Y152A (residues 1-156, Y152A) (from UniProt P21244 1-156) (natural protein)” registered a stoichiometry N of 2.

As for “CsrA (residues 1-61), GST tag removed, P69913 1-61 (natural protein; other documents disagree on this pair)”, in assay [4], the stoichiometry N came to 2.

On to “CsrA tetra-mutant (residues 1-61, R31A + K38A + H43A + R44A) (from UniProt P69913 1-61) (natural protein)”, for which the stoichiometry N in assay [5] came out at 2.

In assay [6], “CsrA-Cdel (residues 1-44) (from UniProt P69913 1-44) (domain or fragment)” showed a stoichiometry N of 2.

What is called stoichiometry N is the number of molecules, sites or subunits per partner or assembly.
